Data taken from patent US20260193346.

Tests used:
[1] = tested on: T1, human LTBP4 TP2E fragment (amino acids 357-586)
T1 sequence: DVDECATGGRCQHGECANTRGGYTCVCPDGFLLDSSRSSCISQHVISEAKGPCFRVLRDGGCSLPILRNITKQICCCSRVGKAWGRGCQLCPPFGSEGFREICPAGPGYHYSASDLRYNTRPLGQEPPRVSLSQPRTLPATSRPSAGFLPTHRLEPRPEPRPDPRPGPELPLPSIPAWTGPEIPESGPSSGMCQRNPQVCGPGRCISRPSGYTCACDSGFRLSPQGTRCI

[2] = target: murine LTBP4 TP2E fragment (UniProt Q8K4G1)
[3] = target: T2, Murine LTBP4 with the 12-amino-acid insertion (expressed fragment, FIG. 5) (UniProt Q8K4G1)
T2 sequence: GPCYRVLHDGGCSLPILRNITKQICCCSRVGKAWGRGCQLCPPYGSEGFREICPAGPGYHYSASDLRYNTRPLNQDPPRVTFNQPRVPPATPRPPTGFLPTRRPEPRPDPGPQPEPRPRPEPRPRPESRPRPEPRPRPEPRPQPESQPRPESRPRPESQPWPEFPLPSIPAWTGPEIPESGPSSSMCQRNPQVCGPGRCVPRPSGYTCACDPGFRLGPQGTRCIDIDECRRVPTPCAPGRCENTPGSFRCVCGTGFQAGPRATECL

[4] = tested on: T3, human LTBP4 proline-rich region fragment (FIG. 5)
T3 sequence: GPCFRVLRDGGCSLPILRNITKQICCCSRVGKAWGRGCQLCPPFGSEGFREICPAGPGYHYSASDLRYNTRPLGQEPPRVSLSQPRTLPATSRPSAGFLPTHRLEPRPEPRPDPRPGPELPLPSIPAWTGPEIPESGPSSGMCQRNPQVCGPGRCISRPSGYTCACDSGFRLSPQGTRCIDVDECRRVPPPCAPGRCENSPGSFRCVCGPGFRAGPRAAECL

[5] = tested on: human latent TGFβ binding protein 4 (LTBP4), full-length
[6] = target: murine LTBP4 deleted for the 12 amino acids (expressed fragment, FIG. 5) (UniProt Q8K4G1)

Chain of plasmin (P00747 20-580): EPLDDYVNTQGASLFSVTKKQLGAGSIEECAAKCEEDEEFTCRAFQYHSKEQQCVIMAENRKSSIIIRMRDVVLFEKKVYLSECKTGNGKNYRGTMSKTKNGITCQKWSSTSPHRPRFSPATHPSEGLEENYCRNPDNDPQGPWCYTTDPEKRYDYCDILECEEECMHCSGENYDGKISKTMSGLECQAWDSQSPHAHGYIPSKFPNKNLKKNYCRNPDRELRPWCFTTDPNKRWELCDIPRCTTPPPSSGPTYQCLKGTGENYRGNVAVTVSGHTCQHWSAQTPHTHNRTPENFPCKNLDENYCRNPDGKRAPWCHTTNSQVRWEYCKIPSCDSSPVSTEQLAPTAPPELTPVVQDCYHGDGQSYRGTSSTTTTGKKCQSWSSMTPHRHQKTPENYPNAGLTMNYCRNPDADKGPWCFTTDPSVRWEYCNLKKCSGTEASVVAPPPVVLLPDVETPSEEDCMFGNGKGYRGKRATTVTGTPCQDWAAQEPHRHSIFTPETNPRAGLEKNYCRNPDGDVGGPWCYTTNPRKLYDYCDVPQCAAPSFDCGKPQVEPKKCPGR
Chain of plasmin (P00747 581-810): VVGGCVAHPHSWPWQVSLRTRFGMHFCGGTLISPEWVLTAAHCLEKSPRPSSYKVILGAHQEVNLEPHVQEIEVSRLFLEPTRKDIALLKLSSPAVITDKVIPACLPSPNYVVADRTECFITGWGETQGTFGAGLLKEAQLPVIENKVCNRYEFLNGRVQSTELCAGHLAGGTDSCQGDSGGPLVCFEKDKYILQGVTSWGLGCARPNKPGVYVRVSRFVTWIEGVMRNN
Chain of human latent TGFβ binding protein 4 (LTBP4), full-length (chain, as listed by the source): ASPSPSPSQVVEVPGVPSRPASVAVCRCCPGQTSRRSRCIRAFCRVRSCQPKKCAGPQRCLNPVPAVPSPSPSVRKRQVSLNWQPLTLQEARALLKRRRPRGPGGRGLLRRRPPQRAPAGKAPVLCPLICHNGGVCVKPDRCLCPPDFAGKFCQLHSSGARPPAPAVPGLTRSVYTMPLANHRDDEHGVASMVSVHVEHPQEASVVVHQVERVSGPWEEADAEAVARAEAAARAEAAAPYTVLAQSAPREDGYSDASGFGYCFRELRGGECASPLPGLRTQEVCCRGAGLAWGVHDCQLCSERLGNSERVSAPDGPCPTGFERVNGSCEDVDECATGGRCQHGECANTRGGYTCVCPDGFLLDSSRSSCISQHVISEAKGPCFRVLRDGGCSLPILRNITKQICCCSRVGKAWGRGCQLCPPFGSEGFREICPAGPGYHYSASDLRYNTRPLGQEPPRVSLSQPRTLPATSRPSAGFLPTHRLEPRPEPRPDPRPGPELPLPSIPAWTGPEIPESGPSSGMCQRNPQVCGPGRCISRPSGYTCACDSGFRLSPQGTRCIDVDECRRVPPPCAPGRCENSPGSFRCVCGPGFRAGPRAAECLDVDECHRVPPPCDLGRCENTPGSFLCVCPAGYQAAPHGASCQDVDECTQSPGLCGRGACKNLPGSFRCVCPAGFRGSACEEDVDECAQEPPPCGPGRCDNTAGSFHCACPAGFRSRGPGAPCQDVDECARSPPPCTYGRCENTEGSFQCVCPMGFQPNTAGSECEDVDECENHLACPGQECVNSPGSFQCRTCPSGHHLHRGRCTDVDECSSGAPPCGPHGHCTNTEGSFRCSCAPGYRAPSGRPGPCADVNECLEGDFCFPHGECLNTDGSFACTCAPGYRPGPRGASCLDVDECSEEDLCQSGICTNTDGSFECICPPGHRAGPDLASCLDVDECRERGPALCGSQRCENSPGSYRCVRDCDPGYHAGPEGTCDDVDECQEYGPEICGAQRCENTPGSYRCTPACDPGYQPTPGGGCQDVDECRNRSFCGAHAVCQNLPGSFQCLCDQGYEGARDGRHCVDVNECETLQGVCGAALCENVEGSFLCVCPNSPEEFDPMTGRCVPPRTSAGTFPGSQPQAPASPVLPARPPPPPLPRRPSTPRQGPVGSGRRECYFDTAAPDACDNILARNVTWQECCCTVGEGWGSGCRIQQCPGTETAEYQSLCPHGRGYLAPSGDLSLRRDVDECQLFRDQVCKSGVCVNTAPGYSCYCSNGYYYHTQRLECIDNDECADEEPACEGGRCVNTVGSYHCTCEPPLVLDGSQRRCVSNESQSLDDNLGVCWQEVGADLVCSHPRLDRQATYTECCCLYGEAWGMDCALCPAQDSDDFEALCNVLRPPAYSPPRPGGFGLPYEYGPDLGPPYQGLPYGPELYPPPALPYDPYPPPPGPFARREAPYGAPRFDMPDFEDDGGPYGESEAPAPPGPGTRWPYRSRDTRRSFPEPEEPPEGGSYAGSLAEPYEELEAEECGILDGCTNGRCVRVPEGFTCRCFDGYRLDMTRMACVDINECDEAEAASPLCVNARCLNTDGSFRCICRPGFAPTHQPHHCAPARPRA

## elastase
[1]
  proteolytic digestion of 35S-labeled fragment (dose-response and time course): the human TP2E fragment is more readily cleaved than the mouse LTBP4 sequence
[2]
  proteolytic digestion of 35S-labeled fragment (dose-response and time course): the human TP2E fragment is more readily cleaved than the mouse LTBP4 sequence

## plasmin
[3]
  proteolysis of expressed labeled fragment by plasmin: Murine LTBP4 with the 12-amino-acid insertion was largely resistant to proteolysis
[1]
  proteolytic digestion of 35S-labeled fragment (dose-response and time course): the human TP2E fragment is more readily cleaved than the mouse LTBP4 sequence
[4]
  proteolysis of expressed labeled fragment by plasmin: The human LTBP4 was most readily degraded
[5]
  plasmin proteolysis of full-length LTBP4: Full-length LTBP4 protein, produced from cultured cells, is also susceptible to plasmin proteolysis
[2]
  proteolytic digestion of 35S-labeled fragment (dose-response and time course): the human TP2E fragment is more readily cleaved than the mouse LTBP4 sequence
[6]
  proteolysis of expressed labeled fragment by plasmin: the murine LTBP4 deleted for the 12 amino acids was readily degraded
